1 molecule from PMC9396414, “An antagonistic monoclonal anti–Plexin-B1 antibody exerts therapeutic effects in mouse models of postmenopausal osteoporosis and multiple sclerosis” (The Journal of Biological Chemistry, 2022) can be followed below.

This assay addresses T1, human Sema4D (semaphorin 4D) (human, UniProt Q92854 22-734).
T1 construct: Semaphorin 4D (Sema4D, CD100), human, recombinant protein bought from R&D Systems, cat. no; 7470-S4; check against the vendor's data sheet; also called CD100; source: bought: R&D (7470-S4)
T1 sequence (looked up): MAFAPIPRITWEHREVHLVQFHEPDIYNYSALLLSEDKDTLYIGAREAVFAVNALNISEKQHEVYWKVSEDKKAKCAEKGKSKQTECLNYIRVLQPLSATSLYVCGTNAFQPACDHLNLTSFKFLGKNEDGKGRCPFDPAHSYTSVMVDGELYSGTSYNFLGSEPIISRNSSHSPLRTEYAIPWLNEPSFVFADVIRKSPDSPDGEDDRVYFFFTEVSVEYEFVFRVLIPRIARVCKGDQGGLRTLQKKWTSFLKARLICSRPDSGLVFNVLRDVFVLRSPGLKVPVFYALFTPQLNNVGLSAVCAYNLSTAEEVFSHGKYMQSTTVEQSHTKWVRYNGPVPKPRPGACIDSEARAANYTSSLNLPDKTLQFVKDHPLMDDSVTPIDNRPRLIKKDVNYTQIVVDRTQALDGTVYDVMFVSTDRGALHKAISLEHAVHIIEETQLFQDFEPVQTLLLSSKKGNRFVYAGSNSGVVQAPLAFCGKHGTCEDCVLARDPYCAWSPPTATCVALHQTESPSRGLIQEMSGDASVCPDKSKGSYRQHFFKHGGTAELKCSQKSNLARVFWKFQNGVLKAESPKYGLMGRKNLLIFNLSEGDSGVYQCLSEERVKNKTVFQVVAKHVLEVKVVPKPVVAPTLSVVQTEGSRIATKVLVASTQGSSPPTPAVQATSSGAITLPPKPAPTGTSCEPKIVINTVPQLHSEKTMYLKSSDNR
As to the kind of experiment: BLI; OctetRED384; 5 μg/ml biotinylated human Plexin-B1 (20–535)-Avi-6xHis captured on an SA biosensor in 1xKinetics buffer; then 50 nM antibody or buffer, then 50 nM human Sema4D; qualitative analysis of association curves. Particulars: both partners purified.

B1: biotinylated human Plexin-B1 (20–535)-Avi-6xHis (domain or fragment, UniProt O43157 20-535, looked up)
chain: LQPLPPTAFTPNGTYLQHLARDPTSGTLYLGATNFLFQLSPGLQLEATVSTGPVLDSRDCLPPVMPDECPQAQPTNNPNQLLLVSPGALVVCGSVHQGVCEQRRLGQLEQLLLRPERPGDTQYVAANDPAVSTVGLVAQGLAGEPLLFVGRGYTSRGVGGGIPPITTRALWPPDPQAAFSYEETAKLAVGRLSEYSHHFVSAFARGASAYFLFLRRDLQAQSRAFRAYVSRVCLRDQHYYSYVELPLACEGGRYGLIQAAAVATSREVAHGEVLFAAFSSAAPPTVGRPPSAAAGASGASALCAFPLDEVDRLANRTRDACYTREGRAEDGTEVAYIEYDVNSDCAQLPVDTLDAYPCGSDHTPSPMASRVPLEATPILEWPGIQLTAVAVTMEDGHTIAFLGDSQGQLHRVYLGPGSDGHPYSTQSIQQGSAVSRDLTFDGTFEHLYVMTQSTLLKVPVASCAQHLDCASCLAHRDPYCGWCVLLGRCSRRSECSRGQGPEQWLWSFQPELGCLQ
modifications: biotin on the Avi-tag (in vitro, BirA enzyme)
notes: Plexin-B1, human, extracellular region residues 20-535; cloned as fragment 1-535 and secreted as 20-535; the Avi-tag stands between the C-terminus of the fragment and the 6xHis tag; The SPR experiments with the antibodies used the form without the Avi-tag, Plexin-B1 (20–535)-6xHis; The cell assays used full-length human Plexin-B1-FLAG (GenScript, pcDNA3.1); also called human recombinant Plexin-B1 …
For B1, the binding result is recorded as “binds”.
